This data set can be described thus: protein stability index of a GFP-peptide fusion (GPS, HEK-293T) (PSI 1-6); higher = more stable.
Setting [1] is: treatment: DMSO, c terminus: a fixed tail appended.
Where [2] appears, read: treatment: MLN4924 1 uM, 8 h, c terminus: a fixed tail appended.

± gives the standard deviation.
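Also: 24-mer peptide tiles fused after GFP, lentivirally expressed, FACS-sorted into six equal bins by GFP/DsRed ratio, decoded by Illumina sequencing, PSI is the read-weighted mean bin number.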

YSRYLNEKAFSYRQMAFDFARVKK [SNAP91]: the protein stability index by setting is: under setting [1], 2.28 ± 0.59; under setting [2], 2.7 ± 0.16.
For DELAHRCSSFMAPPVTDLGELRRR [CPOX] the same measures were 3.92 ± 0.11 and 4.04 ± 0.3.
On the same counts, the results for GLEQFINKVAGHPLAQNERCLHMF [SNX3] are 2.72 ± 0.61 and 2.21 ± 0.11.
For LAEARRLFPGRVSVDLMLGLPAQQ [RSAD1] the same measures were 2.76 ± 0.25 and 2.7 ± 0.31.
Turning to LSQSPEPGRRGDPDTAPPSERPLE [RTN2], the protein stability index is, setting by setting: under setting [1], 5.56 ± 0.24; under setting [2], 5.56 ± 0.15.
For QTTYLEDRPMFMLQCAMEENCLSA [LOXL2] the same measures were 2.38 ± 0.59 and 2.33 ± 0.43.
On the same counts, the results for AVNRARRPLARPIKRGDILPPEKG [RHOBTB1] are 3.66 ± 0.23 and 3.77 ± 0.33.
On the same counts, the results for HIFAHRIYLATSSSKFYDLFLMEC [RHOBTB1] are 3.07 ± 0.6 and 2.38 ± 0.49.
Consider TQSLPTASASKFPSSGPVTPQPTA [AUP1], for which the protein stability index is 4.85 ± 0.22 under setting [1] and 4.78 ± 0.16 under setting [2].
For DTETFTWSQPITTGKAPSPRAAHA [KLHDC2] the same measures were 4.31 ± 0.082 and 4.41 ± 0.51.
For DYVQLENQWETPPEDLQTDLAKLV [ZNF449] the same measures were 4.19 ± 0.3 and 4.31 ± 0.059.
Consider WEAKQEKIKSEEIEITFSYWDGSG [FAM50A], for which the protein stability index is 2.59 ± 0.3 under setting [1] and 2.6 ± 0.35 under setting [2].
On the same counts, the results for MPLSGTPAPNKKRKSSKLIMELTG [MYOZ1] are 3.63 ± 0.24 and 3.81 ± 0.22.
On to SETHAAGHSQEKTHSREKSSQESG [CHGB], for which the protein stability index was found to be 5.67 ± 0.22 under setting [1] and 5.57 ± 0.16 under setting [2].
For QGYVSDIRRFLSAFHEPQVGLIQA [DFFB] the same measures were 2.15 ± 0.47 and 2.38 ± 0.17.
On the same counts, the results for ELIILYEKKGLHEKALQVLVDQSK [VPS39] are 2.26 ± 0.25 and 2.53 ± 0.22.
On the same counts, the results for HRSACSSAAVRGHPRALPPDARPH [HAGHL] are 3.81 ± 0.19 and 3.77 ± 0.17.
Regarding PLEPEDALSDAEFEGEGDYEEGMY [P3H4], the protein stability index by setting is: under setting [1], 5.59 ± 0.3; under setting [2], 5.44 ± 0.34.
On the same counts, the results for LSSSIIHEIDSILGNKPYSKKDYR [KCNAB2] are 2.65 ± 0.26 and 3.24 ± 0.45.
On the same counts, the results for KQDSLVILTIMATLKIRNSNFYTV [TMEM106C] are 3.25 ± 0.41 and 3 ± 0.67.
For LETSGNPNGRYGSGYLLASTPESE [SLC6A17] the same measures were 4.93 ± 0.14 and 4.91 ± 0.26.
Consider LLKIHEVSTVSHADADCFVCVFLS [CASP6], for which the protein stability index under setting [1] was 2.4 ± 0.17 and the protein stability index under setting [2] is 2.4 ± 0.41.
With ARALLEDDSDTQQVVVLVRDNGDP [PCDHGC5], the protein stability index amounted to 4.82 ± 0.1 under setting [1] and 4.79 ± 0.46 under setting [2].
For the sequence HKTHQAPASASSLPGTGAQLPPQP [DYRK1B], the protein stability index runs as follows: under setting [1], 4.55 ± 0.43; under setting [2], 4.97 ± 0.22.
On the same counts, the results for RLAADDFRTKFETEQALRLSVEAD [KRT17] are 4.8 ± 0.3 and 4.66 ± 0.15.
On the same counts, the results for NGTRVQEEPELVFTLGDCDVIQAL [FKBP8] are 3.72 ± 0.28 and 3.83 ± 0.17.
ILNLERDVEDLQRDKARLLREKVE [NFE2L1]: the protein stability index under setting [1] stood at 3.96 ± 0.51 and the protein stability index under setting [2] was 3.93 ± 0.41.
For PSDPLVSIGALISKAHLEKVRSYV [ALDH8A1], the protein stability index is, setting by setting: under setting [1], 2.05 ± 0.079; under setting [2], 2.12 ± 0.13.
On the same counts, the results for PPATQNTFGNSTLALGPGESLPHR [PLAGL1] are 4.63 ± 0.34 and 4.39 ± 0.083.
As to KNYNYGMHYCAVPPRGPLGQGAMF [NEUROD6], the protein stability index reads like this: under setting [1], 2.18 ± 0.44; under setting [2], 2.47 ± 0.34.
On the same counts, the results for VVCGMFGFPGERTYNTKVYKMFAS [LOXL2] are 2.66 ± 1.1 and 2.63 ± 0.2.
For VTGYGINGTGDSNDFWRIEVVNRK [POMT2] the same measures were 3.29 ± 0.21 and 3.39 ± 0.17.
For KADENNGFGSKNTAFCTHVFPETA [TBX5] the same measures were 4.01 ± 0.47 and 3.86 ± 0.2.
As to QNLCKGLSQPTTNLVAGCLQLNAR [NEUROD6], the protein stability index reads like this: under setting [1], 2.97 ± 0.2; under setting [2], 3.15 ± 0.23.
On the same counts, the results for STTNSTAAKPAASITSKPATLTTT [ZNF207] are 4.39 ± 0.25 and 4.41 ± 0.081.
On the same counts, the results for MGQKVTGGIKTVDMRDPTYRPLKQ [SPSB1] are 3.89 ± 0.22 and 4.01 ± 0.28.
On the same counts, the results for ECEKSALTPGFSDNAIMLFSPDFT [FAN1] are 3.49 ± 0.19 and 3.79 ± 0.26.
Turning to SVFLLTLSIAFICCAQVKVSHLL [PHTF1], the protein stability index is, setting by setting: (treatment: DMSO, c terminus: native) 3.3 ± 0.35; (treatment: MLN4924 1 uM, 8 h, c terminus: native) 3.23 ± 0.53.
As to GKRMEFTSSCPNVSERSFDNVRSL [CRYBA1], the protein stability index is, setting by setting: under setting [1], 4.12 ± 0.3; under setting [2], 4.17 ± 0.28.
On the same counts, the results for GGLLDEAMLDEISLMDLAIEEGFN [NFE2L1] are 4.16 ± 0.21 and 3.86 ± 0.31.
For GPMCDLLWSDPDDRGGWGISPRGA [PPP2CA] the same measures were 3.1 ± 0.42 and 3.21 ± 0.33.
On the same counts, the results for TWDGRPLTMAATFDDCLYALCVVD [GFOD1] are 2.38 ± 0.46 and 2.35 ± 0.61.
As to FEFQVRVCDSCYDSIKDEDRTSLA [WDFY1], the protein stability index runs as follows: under setting [1], 2.78 ± 0.23; under setting [2], 3 ± 0.61.
On the same counts, the results for SPLGALQHGFFRRTADEATNTGPA [DYRK1B] are 4.38 ± 0.16 and 4.57 ± 0.053.
On the same counts, the results for SSYPVCVSKVVKGGSSGKGTTLRG [OAS1] are 4.11 ± 0.39 and 4.18 ± 0.19.
On the same counts, the results for YGRDSFVRLLLEFKAEVDPLSDKG [ASB7] are 2.65 ± 0.74 and 2.37 ± 0.28.
Turning to EFVIIDCRYPYEYEGGHIKGAVNL [CDC25A], the protein stability index stood at 2.47 ± 0.29 under setting [1] and 2.3 ± 0.43 under setting [2].
On the same counts, the results for DKRHVEQKIQFKRETASLKLLPHQ [PDZK1] are 3.85 ± 0.31 and 3.8 ± 0.24.
For CYNGQDAVVNELIDYGANVNQPNN [ANKRD44] the same measures were 4.16 ± 0.088 and 4.24 ± 0.21.
On the same counts, the results for KYEKLRGDVAIKLKFLEENKIKVM [ARFIP2] are 2.22 ± 0.37 and 2.48 ± 0.27.
On to PTQEEWRQVVDILWSDPMAQEGCK [PPEF2], for which the protein stability index reads like this: under setting [1], 3.96 ± 0.39; under setting [2], 4.21 ± 0.079.
For GSPDDSHPKDGPSPGGTLMDLSER [DLC1] the same measures were 5.54 ± 0.32 and 5.48 ± 0.28.
On the same counts, the results for LVKQECIKEVVEKREACHCEEVKM [FAN1] are 4.54 ± 0.4 and 4.7 ± 0.23.
Take RFQDPAAASISDGDCDAREEKQRE [FAM219A]: the protein stability index runs as follows: under setting [1], 5.5 ± 0.4; under setting [2], 5.46 ± 0.32.
For DRISTTFRLTTLLMSGCSSELKNR [PLK2] the same measures were 2.19 ± 0.46 and 2.43 ± 0.18.
With LVTTHHLMVHGNERFIQYLASRNT [SNAP91], the protein stability index was 2.18 ± 0.17 under setting [1] and 2.07 ± 0.42 under setting [2].
On the same counts, the results for EVMESEEFMLLPANQLIDIISSDE [KLHL20] are 4.54 ± 0.23 and 4.64 ± 0.32.
For GAFETVLASAYTGRLSMAAADIVN [ZBTB22] the same measures were 2.88 ± 0.61 and 2.91 ± 0.59.
On the same counts, the results for TLNVDRKEKCVSLPDCCHGSELRD [DLC1] are 4.15 ± 0.1 and 4.26 ± 0.15.
For the sequence NTLEGKKPGNNEGSGAPSPLSKSS [SNAP91], the protein stability index is, setting by setting: under setting [1], 5.41 ± 0.23; under setting [2], 5.35 ± 0.28.
On the same counts, the results for EFPQFEPQRYPACAQMLPPNLSPH [TRAF3IP2] are 3.22 ± 0.18 and 3.1 ± 0.36.
On the same counts, the results for CRMSIRRVMPTQEVQELPIPSKLL [WSB1] are 2.42 ± 0.2 and 2.52 ± 0.2.
For KYSYTSTSDDNLLKNIELFDKLAL [KCTD13] the same measures were 2.63 ± 0.42 and 2.59 ± 0.26.
For the sequence ALEEPEKMGLQERSETFLEVWGNA [DNAAF3], the protein stability index under setting [1] stood at 4.35 ± 0.22 and the protein stability index under setting [2] came out at 4.32 ± 0.42.
As to VLGVADGVGGWRDYGVDPSQFSGT [PPTC7], the protein stability index by setting is: under setting [1], 3.51 ± 0.24; under setting [2], 4 ± 0.088.
In the case of FVALKSVRVPNGGGGGGGLPISTV [CDK4], the protein stability index is, setting by setting: under setting [1], 2.52 ± 0.24; under setting [2], 2.41 ± 0.33.
Take LPLTARWEYMHSPSENSKEAEILE [CPOX]: the protein stability index was determined as 4.94 ± 0.32 under setting [1] and 5.02 ± 0.17 under setting [2].
For SSSSECLEDSTMGSVADTVARVLR [PLK2] the same measures were 4.08 ± 0.22 and 4.03 ± 0.34.
Take ELFKKDPGFDRGQFHKQIAVMRGQ [PI4K2A]: the protein stability index by setting is: under setting [1], 2.8 ± 0.33; under setting [2], 3.03 ± 0.19.
With ANSSSEAPFPNVSTSLLTSAGNRT [ADAMTSL2], the protein stability index reads like this: under setting [1], 4.52 ± 0.36; under setting [2], 4.49 ± 0.29.
For APGLYNHLPWQYHAGQGGLFYSAE [CCDC3] the same measures were 2.69 ± 0.084 and 3.25 ± 1.1.
On the same counts, the results for DGAGRTWQDSDTVKLLVDLELSYG [TOR1AIP2] are 2.37 ± 0.48 and 2.79 ± 0.43.
